The source of these data is the DeepSol protein solubility set.

This data set in a line: soluble on expression in E. coli; label from the status in PepcDB or PDB records.
As to “MGSDKIHHHHHHMKAVVIGGGVFGSLIARELTKYDLEVTLIEKNLDVGWGVTKANSAVVHAGYDDPPESVRAQFCASGNAMYEDLSKELDFDFKRIGSFVVAFNDEELKELERLLKQGEENGVPGLTILERDEVLSMEPNLNPEVKYALYAPTAGITEPWMVAIAAVENAVQNGLKLVLGESVVGFEKVNGRVRKVHTSRGEYEADIVINCAGLHADEIAKLAGAEYVPLHPRKGEYILLDKKLQGLVKRVIFPTPTKISKGILVLPTVDGGILLGPTAEDLPEEMKDRPITTREGLEKVREFTRRLVPSLDFSLVVKTFSGLRPESPQKDFFIKVSETVKNFVNVMATRSPGLTAAPAVAKYVVEELIQEKMRIPLEKKKDFKPERKRIVHYSELPLEEWRREIERDPRAGRLVCFCNEVTEKEIVEAIRRGARTLNGVKFRTRAMFGRCQGGFCMARILKILERELGVDMSEIKMKSENSWVVNGKVRE”, the “soluble on expression in E. coli” value is on record as “not soluble”.

As to “SNALFSSRDILEVLQDIHMETGETVAIATKNDIYLQYIQIIESVHALRFHVDENAIRPLTMSSNGWMLMSTMNDKAIDNTVRRANTITQKDGIRFEVDDMMARIRQVREQGYASAEHIPFVGGGTICVLLPMTIQGQPVTMGLGGALDRIKQNYDRYLELLLNGVQQLKKSDSFHQPI”, the “soluble on expression in E. coli” value was “soluble”.

Take “MKRIGIDVGGTNTDAVLIDGDTIVASIKVPTTQDVLSGVKAALAHVAGHVGAADRPIDAVMIGTTHFTNAVVERARLERVAALRIALPTGSSLPPMCDWPKDLHDAVDPLIFMVHGGHEYDGSPLVPMIPDEIREAAMKIRDAGITSIAISATFSPLTTECEVRAAEIVRSVIPDARITLSHTLGRIGLLERENVALLNAALQTLGKTTVQAFSDALREAGVKAPFYLTQNDGTVSLADVAAANPVHSFASGPTNSMRGAAFLTGLSDAMVVDVGGTTSDIGCLVGGFPREANNIVHIGGVRTLFRMPDLLPIALGGGTIVDPETGKIGPRSVGYRILTEARVFGGETLTTSDIAVAAGLIEIGDRDRVKDLDSTFVQATLQRIRNMVADSFDQMKTSAEDVPLVAVGGGAFLIPETVPGASDVLRVENAGVANALGAAMAQVSGEVDQVFSGLSRDEALAKAETEAQNAAVASGAERTSLKTLEVEDIPIAYLPGGARRVRVRVIGDIAFHLEHHHHHH”: the “soluble on expression in E. coli” value is reported as “not soluble”.

Take “LGVDRAKQIQALAKGTFGINIALDAFTLELRLLVEQIEFIEEQISVIEEAIDQVMEEMRPSKDTAYRHVLETIPGIGPVLAASIIGEIGDINRFPNAKALVAYAGLDATVRSSGQFEGTRNRISKRGSPVLRHSIWLAAVSARRFNPEMKEFFEKKRSEGKHTLVATGAVARRMVHLIYSLWKDNRPFDPNYQWSPTNSR”: the “soluble on expression in E. coli” value is “soluble”.

With “MSLNGKPAVFPEVKSIKITGNKALTTEEIREVMSTSTRNSFFGTGLFAGARRPFIADDFEKDISLIRKLYTFKGYFFADVEPTVKRSKNGDVSITIRIRENQPTLLDSLSYAGLDSIPENLRSRYLKKSLLKLQQIFSVEKLIEERDRTLDFFREHGYTFFHPDSIRITVDTLGLHAGVRFDISLPGRYAYGPVKVFVHDPLKKDNPAIAKTFVRDNVSVTIYGHQKFSPKVFSSAIAWKQGALTRQSLEQRTLENFGSTNLFSSISMQKDAARAGAIPITIDLDPAPKHQIEPKLLVDNRYGSLFVGGALSYENRNLFGAGQQLKLSTNYGRQLSSDTNVLSSLSADQYDKLIPYEFNIKADLVIPRLGKQGSYYNGTVEYAQSKLPVLLDSKRELIRATYSTRPTRVSKLDFDFFELEVARKDSLRGFQQLFKNDLAQNIGINPADPVAVNRGLDSLLQTRLNQTFRLRYSLSNREKSTRSKRSPIWNFSVTAEESGSLLWLIDKYIDKKSYAGFTDSDPQIFGTPYNQYVKLDTQLAVTKNLSPKRQVAARIALGWMSPYGKADTTPEDHRFYAGGSNSMRGWVFGTLGPGSCPNAAVSNFGADIKAELGLEYRIQFFKVFGQESGIALFTDAGNIWDRTGPYAFSLRSLTQDFAWDWGAGLRIGSPIGPFRFDFAWKLHDPANPQPWRFSQTKLTDFTFNFGIGETFEGHHHHHH”, the “soluble on expression in E. coli” value was “not soluble”.

For “RQIQKKIESGELKAAPEIVEADAECCGQHEICEKESLLAAVSKKIEYYDDEELDRFRGRPSNGYNEEEVEEFREIMYTCKEDEVAGWSRSLQLRGIELPDELKDELFLIVGERRFK”, the “soluble on expression in E. coli” value is “not soluble”.

Turning to “VVPGDASSVVSVNPAKPLISVCIPMYNNGATIERCLRSILEQEGVEFEIVVVDDDSSDDCAAIAATMLRPGDRLLRNEPRLGLNRNHNKCLEVARGGLIQFVHGDDRLLPGALQTLSRRFEDPSVGMAFAPRRVESDDIKWQQRYGRVHTRFRKLRDRNHGPSLVLQMVLHGAKENWIGEPTAVMFRRQLALDAGGFRTDIYQLVDVDFWLRLMLRSAVCFVPHELSVRRHTAATETTRVMATRRNVLDRQRILTWLIVDPLSPNSVRSAAALWWIPAWLAMIVEVAVLGPQRRTHLKALAPAPFREFAHARRQLPMAD”, the “soluble on expression in E. coli” value was “not soluble”.

For “MPFPSRSLRATLCSAPVRMPDAAQKNAATPPPPLALSKPSPSPWAALLTPSSLSFPCSPSLPTYRRTRTAMHGSPPARGLQRRIKVPLMASAPSSIAFDIAAPTAAAWIARWMPVASPRRCSPLLRLCGDYPRCAVAAALSCQRLWIRSTSPLACSTAAGQTRSTPKMTKRPRRGIRRPSRAAGRLGSDTEEAENAALCQRHPEEHAGIFQSQHIKPFPVRAAIDIGTGGVVSLCVARVDATVGAIQKLMYQTQLPLHLEALPTSMSSPSSPLSASSSSFTLSERTMEDITNKVHILQGAMRRNAFEGLSERAAVLSWPLCLARNAGQLAERLTKEFKVDVRVLGADFDVEWPPSVARFLAGEGASTPETADDSRSTVDKGTRDSVTRKGAENTLKSLLCAARAPTTSGLARHKRKVTAPPSSGSASSRGAMDARTQLDTLAFLAHAAVSQCVAPQRLLVLHEDPQRGLRLLGLGTSAADDIADLLDDATTPEERQSLYAIAHGPGPSLLEAGERTPSSGKQVFVAAHAQSRQQASLLPTLSSMRDCQGSADDGTSSDAAPAAASLMRLVEHPLPVDVASAHRYCITQIQRRPLESYGLHASSPNPLLADEFAALRGLLVGMIQPTLPAWVRRKAQLGGVLCGTSHNGGLLNLAARVSQQTHVSLEHLEVHAQYHFCGLTDVLLAESFPNPFLVLPSVALTAAVLRSLESPRITYLPEVSVAAALLVQPSLWLHARATEVRARLARDPFYASTTAAQRGRMFGRPHRKDNPTAAPDATWVKEGRWNPISFSESMRGT”, the “soluble on expression in E. coli” value is recorded as “not soluble”.

In the case of “MNGPEVLRFAANLYRVPVEGGYFLVDAGLPWEARRLLSLLQEPPRLLFLTHHHLDHAGGARALWERFRVPVLAHPQEWAYLTKRKPRPPLPLPLLGKGARQLGADDPGGGPRPRGGRGWRSSASGWSTSRGTPLGQVGLFREGVLLAGNALRGRGLPPRFINEDHALARRTVRKILELGVKRVYLGHGGPLSGEEVAAIARRLGV”, the “soluble on expression in E. coli” value is “soluble”.

Consider “MKQIKNTHYEGERPLFASHGLYLEEVTIHAGESALKECSDIEAVNCRFEGKYPFWHNDGFVVKNCLFTEGARAALWYSRNLKMKDTLVEAPKMFREMDGVELENVQLPNALETLWYCRNVELNNVKIDKGDYLFIHGEDIRIKNFVLNGNYSFQYCKNVEIRHAEIHSKDAFWNTENVTVYDSVLDGEYLGWHSKNLRLVNCKISGTQPLCYAHDLIMENCTMADDADLAFEHSSVKATIKGPVHSVKNPRTGNIVAESFGTIILDENLKAPGNCELKLWDGLTCFD”, for which the “soluble on expression in E. coli” value is recorded as “soluble”.

As to “SLRKIANSITEPIEQLVTAMKSVQHSGIEAGVSLSLPEHTQDEAGMLNRHFTVMMKRINELMEENVEKQLIIKETELKALQAQINPHFLYNTLESINWLAKANQQKQISKMVESLGFLLRNSIHMKKDIVTIQEEADIVRHYMTIQRFRFEERLKFTLDIDDEVKHCLIPKLTLQPLAENAIQYALEPFTRPCAIRIQAKKAKGCVCITVEDNGPGMDGRILESTGGRGIGLWNIRERISLTFGEPYGLRIHSEHEKGTRIVITIPCRNEVV”, the “soluble on expression in E. coli” value is recorded as “soluble”.

With “PFEPKIVAFVCTYCTYAGADLAGTSRLNYAPNVRIVRLPCTGRISPMFILKALQKGADSVLVSGCHPGDCHFTAGNYHARRRWTVFRALLSFTGIPEERIRFSWISAAEGAKFAELINEITDDTRKLG”, the “soluble on expression in E. coli” value is given as “not soluble”.

As for “DAGQANDDALRVALQFKPVADFSPYSDDAVLNLRMGAVETLVTLDEDGKPKPVLAEKWEMKDDRTAVLTLRKDVSFHDGSKLTGEVVKNALDHALSATTRPKGLGKADLKVEATGESEVTITAPEADPILVQRLTDPGAAILSKDAYAGENPDPFNHGTGPFKLVKKESDGSVSAEAFADYWNGTPETSALKVSFIEDGAARANAFRAGDFDVIKGVPVVALPELSDAHVTDVHLPRATLLHLNAEKGVFADAKLRTAVAGAIKTDAIVDKIYEGKANKTEGSLFNLDAQWAQKAKPLAGAPADATIGKGKTVRLATWDSRAELPETANLIADQLRALGFNVDITVADYASLENRLLDGSFDAVIGSRSYMIGAGDPVAFLDTDFTCDGSYNLSRLCDPEIDKKIAAAKSEKDLDTRHKD”, the “soluble on expression in E. coli” value was “not soluble”.

Consider “MEQLNICIDIDGTITDAYYWIDLCNSYFKTSITEKDATQYYIHKILNVPLEEYNEFYEKYKYKLHSEQKLRKDVKSVITKLSQNNNIFFVTARERDLTILTYSYLRKKEIPYDSLFILGTHHKVPTARQLNCDLFIEDNYDNALELSKAGFKVLLIDTYYNRKPLNQNIIRFYNWDEVYGIVDRLFEKSEAI”, for which the “soluble on expression in E. coli” value was “not soluble”.

As to “MPSSSNSAAFSLDEFAKALDKHDYHAEKGQTVHGKICQHANEGVYVDFGGKSPGFVPVQELGLRPHAEIEDSFPLDSAWDFLVTSEQNDEGQVRLSRRQLQIQQSWENLAELEESGKTLEMVVTGTNKGGVVGDVEGLRGFIPRSHLMHKDNMDALVGQVLKAHILEANQDNNKLVLTQRRIQQAESMGKIAAGNIYEGKVAKIQPYGVFVEIEGVTGLLHVSQVSGTRVDSLNTLFAFGQAISVYVQEIDEYKNRISLSTRILETYPGELVEKFDEMMADAPNRLPLVQSKQNLGDKQEQLEKSLEHHHHHH”, the “soluble on expression in E. coli” value is on record as “not soluble”.

Turning to “MNFAQVKDYLVDLQNRIVTGLEQVDGQSFRRDTWDRPEGGGGTSCVIEEGNVLERGGVNFSHVFGKGLPASATAARPELAGRAFEAAGVSLVLHPRNPYAPTVHMNVRFFAATKEGAEPVWWFGGGMDLTPYYGFEEDAVHFHQACKDALQPSGEEYYPRFKKWCDEYFYLKHRKEPRGIGGVFFDDLNQPDFATCFNLTRSVGDHFLAAYVPILQKRRDLPYGERERDFQAYRRGRYVEFNLVWDRGTLFGLQSGGRTESILMSLPPVVKWRYDWSPAAGSPEAKLYTDFLTGRDWLPLGLEHHHHHH”, the “soluble on expression in E. coli” value is given as “soluble”.

With “MAHHHHHHMPPSNVRKEEAELRQIAKQARLARKEVQQRERKQRQRERRAAAKNGEAATAAQQTAASSAMRTRGAIILPDEVQELRQRLMGDDAASAASAADSPARKTKKAAARKAARSPAKKSAGAAGASNHGAASSSTLVPTYHQEVHFKKKMFFVDVVLHHVPHQKIDISETNTNRLVVDTCGHTKKYRLVLPYPKGMLCDAAAATYEFENGILQCRLPIMDGAIPASLEAENAKMIEKMRQQRALRFRVTRDGDLTVRTRQALLTQAPAAQAALPEAKKAAAAQRGDDTDSDNEVVNAQAREAKGTEKMASPKSRKRTRDGDEEDSKETPQQTRSVSAKKAKGAAAAVNTLPTEAATASKPAAKKSKPDVFEAEHAKVMEAAKAAAAKVHLSMRERVKLAKAVQASREERLQTRSLRKERKEEQKQQSFHRILEEQKRQLLARASMQQPAPSPTAKVNASAKAVHFADE”, the “soluble on expression in E. coli” value was “soluble”.

As for “MKKKLVGVECLNEYICQSSNKLYADSSVILTPGARDELSRRGVTVVYGPRPESGEAPAACPPGCTCPACTAAKADSGLEQLLFAVAAMLKTEYGITDPEELKNLSCQALRTIKANL”, the “soluble on expression in E. coli” value is given as “not soluble”.
